Measurements reported in publication PMC2795169, “The Influence of Recombinant Production on the Immunologic Behavior of Birch Pollen Isoallergens” (PLoS ONE, 2009).

T1: Bet v 1.0401 (Betula pendula, UniProt P43177)
T1 construct: gene BETV1D; full-length non-fusion protein, no tag, pET28b (Nco I/Eco RI), E. coli BL21 Star (DE3), codon-optimized gene, batch B purified without denaturation
T1 sequence (P43177 2-160): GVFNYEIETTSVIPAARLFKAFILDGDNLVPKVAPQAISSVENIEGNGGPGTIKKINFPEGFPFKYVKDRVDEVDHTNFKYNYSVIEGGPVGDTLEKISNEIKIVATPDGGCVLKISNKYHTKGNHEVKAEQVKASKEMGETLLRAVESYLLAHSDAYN


How the values were obtained:
Bet v 1.0401 = target: T1, Bet v 1.0401; test: ANS fluorescence titration, nonlinear regression; format: binding
[1] = target: Recombinant Bet v 1.0401 production batch A (birch) (UniProt P43177); test: SEC-MALS; online HPSEC-light scattering (refractive index and right-angle light scattering), 0.5 ml/min, 0.1 M sodium phosphate pH 6.5, 150 mM sodium chloride
P43177 = test: dynamic light scattering; DLS in aqueous solution at a concentration of 1 mg/ml; conditions: other: dynamic light scattering

| Kd (Bet v 1.0401) [µM] | percent of the protein as multimers of more than 2,000 kDa [1] [%] | percent of the protein as small oligomers of 70–80 kDa [1] [%] | stoichiometry N [1] | Molecule | percent of the protein as aggregates (RH 16 nm) by DLS (P43177) |
| --- | --- | --- | --- | --- | --- |
| 21.2 |  |  |  | O=S(=O)(O)c1cccc2cccc(Nc3ccccc3)c12 [8-anilino-1-naphtalenesulfonic acid] |  |
|  | 2 | 12 | 4 | Recombinant Bet v 1.0401 production batch A (protein) MGVFNYEIETTSVIPAARLFKAFILDGDNLVPKVAPQAISSVENIEGNGGPGTIKKINFPEGFPFKYVKDRVDEVDHTNFKYNYSVIEGGPVGDTLEKISNEIKIVATPDGGCVLKISNKYHTKGNHEVKAEQVKASKEMGETLLRAVESYLLAHSDAYN | 34% RH of 16±8 nm |
